Results published in PMC5624926 (Nature Communications, 2017).

Key:
Conditions in all cases: both partners purified
[1] = target: T1, CD22_(20–687)F N231Q (human, UniProt P20273, N231Q, N-linked glycans with mature carbohydrates (HEK293F); glycosylation site N231 knocked out); assay: BLI; Octet RED96; CD22_(20–687) forms loaded on Ni-NTA biosensors; Fab in solution 500 to 62.5 nM; 1x PBS pH 7.4, 0.002% Tween, 0.01% BSA; 1:1 fit; triplicate
T1 construct: also called CD22 N231Q mutant; source: HEK293F, transiently transfected, secreted, purified (Ni-NTA, Superdex 200); not shown: His6, C-terminal, kept

[2] = target: T2, CD22_(20–687)S (human, UniProt P20273, N-linked glycans of high mannose type (HEK293S)); assay: as above
T2 construct: differs in the glycoform; also called full-length CD22 ECD made in HEK293S (HEK293 Gnt I−/−); source: HEK293 Gnt I−/− (HEK293S), transiently transfected, secreted, purified (Ni-NTA, Superdex 200); not shown: His6, C-terminal, kept

[3] = target: T3, CD22_(20–687) (human, UniProt P20273, N-linked glycans; glycoform not stated); assay: negative-stain electron microscopy; CD22_(20–687) in complex with epratuzumab Fab, 2% uranyl formate stain; 2D class averages and ab initio 3D envelope
T3 construct: also called full-length CD22 ECD; not shown: His6, C-terminal, kept

- fold improvement in affinity against WT CD22 [1]: 6 fold
- fold increase in on-rate against WT CD22 [1]: 25 fold
- binding result [2]: binds
- binding result [3]: binds
B1: epratuzumab Fab (Fab, V domains shown)
VH: QVQLVQSGAEVKKPGSSVKVSCKASGYTFTSYWLHWVRQAPGQGLEWIGYINPRNDYTEYNQNFKDKATITADESTNTAYMELSSLRSEDTAFYFCARRDITTFYWGQGTTVTVSS
VL: DIQLTQSPSSLSASVGDRVTMSCKSSQSVLYSANHKNYLAWYQQKPGKAPKLLIYWASTRESGVPSRFSGSGSGTDFTLTISSLQPEDIATYYCHQYLSSWTFGGGTKLEIK
notes: heavy chain of the epratuzumab Fab, gene synthesized by GeneArt; PDB 5VL3, complex with CD22; light chain of the epratuzumab Fab, gene synthesized by GeneArt; Therapeutic anti-CD22 antibody, used as Fab; purified on KappaSelect, so the light chain should be kappa (surmised); source: HEK293F, heavy and light chain co-transfected, purified (KappaSelect, MonoS, Superdex 200)
